In experiment [1] the test system is pDAB1 (Tyr232). Description: HRECs treated 5 minutes with HEK 293T-derived mini-RELN media, pDAB1 western blot. In kind it is cell-based, human. The note with it: HEK 293T-derived media 1:1, 1:4, 1:14, 5 minutes. The method, then: The effect of in vitro treatment with RELN or miniRELN protein was also evaluated. HRECs were cultured in EBM-2 media enriched with EGM-2 Single Quots (Lonza) at 37° C. and 5% CO2 and experimentally tested at passage 7. 24 h prior experiment, cells were plated on a 6-well plate at 500,000 cells/mL. Two hours before the experiment, the cells were washed with PBS to remove residual growth media and then incubated with a starving media including EBM-2, 1% GlutaMax+0,2% Normicin. Treatments was conducted using media derived from HEK 293T cells transiently transfected for 24 h with different mini-RELN constructs in the presence of Lipofectamine 2000. HEK-derived Lipofectamine2000-media was used as negative control. HEK 293T-derived media was tested at different ratio 1:1, 1:4, and 1:14 (Transfected media:Starving media). Each treatment was incubated for 5 minutes and cells were subsequently harvested in lysis buffer was applied constituted of RIPA (Cell signaling), proteases inhibitors (cOmplete™, Mini, EDTA-free Protease Inhibitor Cocktail, Roche), phosphatases inhibitors (PhosSTOP, Roche), 1 μL of proteasome inhibitor MG-132 10 mM, 1% Triton X 100. The lysates were scraped and centrifugated at 15000 rpm for 10 minutes at 4° C. Total protein levels were quantified via BCA assay. […] We detected pDAB1 (Tyr232; 1:1000, rabbit, #3325 Cell signaling), and Beta actin (1:5000, mouse, #66009-1-Ig, Proteintech. Antibodies were diluted using Intercept® (TBS) Blocking Buffer and incubated overnight at 4C under gentle shaking. Prior secondary antibody incubation, membranes were washes 2 times using TBS-T for 10 minutes. As secondary antibodies we used IR Dye 800n CW Goat-anti-Rabbit (925-32211, Licor) and IR Dye 680 CW Goat-anti-Mouse (925-68070, Licor) both diluted 1:10000 in blocking buffer for 1 h at room temperature under gentle shaking. Membranes were washed three times with TBS-T prior IR detection using Odyssey imager. To quantify the results, each band was quantified using ImageJ and data expressed as pDAB1:βActin ratio normalized to the control. […]
A general note: Immunoblotting shows a protein as a band on a membrane.

The target in a further experiment is T1, NRP1 (Homo sapiens, UniProt O14786).
T1 construct: purchased R&D 3870-N1-025
T1 sequence (O14786 22-644 isoform O14786-2 limits assumed): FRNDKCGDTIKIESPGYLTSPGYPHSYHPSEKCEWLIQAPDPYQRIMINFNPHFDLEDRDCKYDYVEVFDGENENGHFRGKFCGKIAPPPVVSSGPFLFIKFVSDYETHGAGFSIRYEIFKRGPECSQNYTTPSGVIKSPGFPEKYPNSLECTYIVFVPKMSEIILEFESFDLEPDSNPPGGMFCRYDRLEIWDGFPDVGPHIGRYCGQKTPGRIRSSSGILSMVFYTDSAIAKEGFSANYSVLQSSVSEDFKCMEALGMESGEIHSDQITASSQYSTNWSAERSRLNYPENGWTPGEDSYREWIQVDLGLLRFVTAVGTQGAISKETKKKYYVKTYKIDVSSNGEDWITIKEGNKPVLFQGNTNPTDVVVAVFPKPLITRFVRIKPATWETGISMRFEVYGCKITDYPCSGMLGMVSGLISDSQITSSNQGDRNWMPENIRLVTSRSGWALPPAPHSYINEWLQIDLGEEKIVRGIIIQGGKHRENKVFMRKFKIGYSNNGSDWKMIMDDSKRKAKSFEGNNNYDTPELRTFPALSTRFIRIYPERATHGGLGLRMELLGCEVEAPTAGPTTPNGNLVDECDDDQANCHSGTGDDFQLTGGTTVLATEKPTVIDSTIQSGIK
Kind of experiment: Bio-layer interferometry (BLI) of CTR-RELN-NRP-1 interactions. In kind it is binding. The note with it: immobilized biotinylated NRP1. How it is done:
Bio-layer interferometry (BLI) was additionally used to assess NRP1-protein kinetics at 30° C. and 1000 rpm agitation. 1 mg/mL NRP1 (R&D 3870-N1-025) was biotinylated at a 1:2 molar ratio, desalted, and immobilized on the SA biosensor tip (Pall ForteBio) surface. This was followed by 1) 180 seconds baseline buffer diluent, 2) loading of the ligand (NRP1), 3) 180 seconds baseline buffer diluent, 4) 240 seconds association (analyte), and 5) 300 seconds disassociation in assay buffer. Assay buffer: SD Buffer (pH7.4 PBS, 0.05% tween20, 0.01% BSA).
The experimental data were fit with the 1:1 binding model and analyzed with global fitting using Octet Data Analysis software to calculate KD.
Bio-layer interferometry (BLI) was used to assess NRP1-protein kinetics at 30° C. and 1000 rpm agitation using previously published methods. 1 mg/mL NRP1 (R&D 3870-N1-025) was biotinylated at a 1:2 molar ratio, desalted, and immobilized on the SA biosensor tip (Pall ForteBio) surface. This was followed by 1) 180 seconds baseline buffer diluent, 2) loading of the ligand (NRP1), 3) 180 seconds baseline buffer diluent, 4) 240 seconds association (analyte), and 5) 300 seconds disassociation in assay buffer. Assay buffer: SD Buffer (pH7.4 PBS, 0.05% tween20, 0.01% BSA).

In experiment [2] the test system is pDAB1 (Tyr232). Description: HRECs treated 5 minutes with recombinant mini-RELN, pDAB1 western blot. In kind it is cell-based, human. Conditions: 5 minutes, 4 ug/mL recombinant protein. How it is done:
For in vitro screening of constructs using recombinant mini-RELN on HRECs, the cells were cultured in EBM-2 media enriched with EGM-2 Single Quots (Lonza) at 37° C. and 5% CO2 and experimentally tested at passage 7. 24 h prior experiment, cells were plated on a 6-well plate at 500,000 cells/mL. Two hours before the experiment, the cells were washed with PBS to remove residual growth media and then incubated with a starving media including EBM-2, 1% GlutaMax+0.2% Normicin. Treatments was conducted using recombinant mini RELN constructs obtained from Innovagen and Recombinant Mouse Reelin Protein from R&D systems (3820-MR-025/CF). Each treatment was incubated for 5 minutes at 4 ug/mL concentration and cells were subsequently harvested in lysis buffer was applied constituted of RIPA (Cell signaling), proteases inhibitors (cOmplete™, Mini, EDTA-free Protease Inhibitor Cocktail, Roche), phosphatases inhibitors (PhosSTOP, Roche), 1 μL of proteasome inhibitor MG-132 10 mM, 1% Triton X 100. The lysates were scraped and centrifugated at 15000 rpm for 10 minutes at 4° C. Total protein levels were quantified via BCA assay. For Western Blotting, 3.5 ug protein homogenates were prepared under reducing and denaturing conditions using Laemmli buffer enriched with 10 mM DTT and 5 min boiling. Samples were electrophoretically separated in a 4-20% Gel at 90V and protein transferred to a PVDF membrane using iBlot™ 2 Dry Blotting System. The membrane was blocked using Intercept® (TBS) Blocking Buffer for 2 hours. We detected pDAB1 (Tyr232; 1:1000, rabbit, #3325 Cell signaling), and total protein staining (Licor). Antibodies were diluted using Intercept® (TBS) Blocking Buffer and incubated overnight at 4C under gentle shaking. Prior secondary antibody incubation, membranes were washed 2 times using TBS-T for 10 minutes. As secondary antibodies we used IR Dye 800n CW Goat-anti-Rabbit (925-32211, Licor) diluted 1:10000 in blocking buffer for 1 h at room temperature under gentle shaking. Membranes were washed three times with TBST-T prior IR detection using Odyssey imager. To quantify the results, each band was quantified using ImageJ and data expressed as pDABL:total protein ratio normalized to the control.

Data on three molecules can be found in patent US20260139017A1, “COMPOSITIONS AND METHODS USING REELIN IN ALZHEIMER'S DISEASE” (The General Hospital Corporation, priority 2022, published 2026).

B1: IL2ss-6xHis-FspCR50-R6-R6 Cterm RELN-H3447R (protein)
chain: MYRMQLLSCIALSLALVTNSGGHHHHHHGGGAAGYYPRFSPFFFLCTHHGELEGDGEQGEVLISLHIAGNPTYYVPGQEYHVTISTSTFFDGLLVTGLYTSTSVQASQSIGGSSAFGFGIMSDHQFGNQFMCSVVASHVSHLPTTNLSFIWIAPPAGTGCVNFMATATHRGQVIFKDALAQQLCEQGAPTDVTVHPHLAEIHSDSIILRDDFDSYHQLQLNPNIWVECNNCETGEQCGAIMHGNAVTFCEPYGPRELITTGLNTTTASVLQFSIGSGSCRFSYSDPSIIVLYAKNNSADWIQLEKIRAPSNVSTIIHILYLPEDAKGENVQFQWKQENLRVGEVYEACWALDNILIINGGSRTLDSRKWLLHPGGTKMPVCGSTGDALVFIEKASTRYVVSTDVAVNEDSFLQIDFAVSCSVTDSCYAIELEYSVDLGLSWHPLVRDCLPTNVECSRYHLQRILVSDTFNKWTRITLPLPPYTRSQATRFRWHQPAPFDKQQTWAIDNVYIGDGCIDMCSGHGRCIQGNCVCDEQWGGLYCDDPETSLPTQLKDNFNRAPSSQNWLTVNGGKLSTVCGAVASGMALHFSGGCSRLLVTVDLNLTNAEFIQFYFMYGCLITPNNRNQGVLLEYSVNGGITWNLLMEIFYDQYSSGGGTLDSRKWLLHPGGTKMPVCGSTGDALVFIEKASTRYVVSTDVAVNEDSFLQIDFAVSCSVTDSCYAIELEYSVDLGLSWHPLVRDCLPTNVECSRYHLQRILVSDTFNKWTRITLPLPPYTRSQATRFRWHQPAPFDKQQTWAIDNVYIGDGCIDMCSGHGRCIQGNCVCDEQWGGLYCDDPETSLPTQLKDNFNRAPSSQNWLTVNGGKLSTVCGAVASGMALHFSGGCSRLLVTVDLNLTNAEFIQFYFMYGCLITPNNRNQGVLLEYSVNGGITWNLLMEIFYDQYSTGGSGGSTRKQNYMMNFSRQHGLRRFYNRRRRSLRRYP
Take B1: in the experiment on pDAB1 (Tyr232) [1], the “pDAB1 / Dab1 signaling activation” value was “efficacy”.

B2: pfcn-huIgG2-C-termH3447R (protein)
chain: MYRMQLLSCIALSLALVTNSAPLERKSSVECPPCPAPPVAGPSVFLFPPKPKDTLMISRTPEVTCVVVDVSHEDPEVQFNWYVDGVEVHNAKTKPREEQFNSTFRVVSVLTVVHQDWLNGKEYKCKVSNKGLPAPIEKTISKTKGQPREPQVYTLPPSREEMTKNQVSLTCLVKGFYPSDIAVEWESNGQPENNYKTTPPMLDSDGSFFLYSKLTVDKSRWQQGNVFSCSVMHEALHNHYTQKSLSLSPGARTSTRKQNYMMNFSRQHGLRRFYNRRRRSLRRYP
In the experiment with NRP1, B2 gave a ka of 12900 M⁻¹ s⁻¹ and a kd of 0.00102 s⁻¹.

B3: hG2Fc-R5-6-C-termH3447R (protein)
chain: MYRMQLLSCIALSLALVTNSAPLERKSSVECPPCPAPPVAGPSVFLFPPKPKDTLMISRTPEVTCVVVDVSHEDPEVQFNWYVDGVEVHNAKTKPREEQFNSTFRVVSVLTVVHQDWLNGKEYKCKVSNKGLPAPIEKTISKTKGQPREPQVYTLPPSREEMTKNQVSLTCLVKGFYPSDIAVEWESNGQPENNYKTTPPMLDSDGSFFLYSKLTVDKSRWQQGNVFSCSVMHEALHNHYTQKSLSLSPGARTGGGGSGGGGSQTNATRFRLWQPYNNGKKEEIWIVDDFIIDGNNVNNPVMLLDTFDFGPREDNWFFYPGGNIGLYCPYSSKGAPEEDSAMVFVSNEVGEHSITTRDLNVNENTIIQFEINVGCSTDSSSADPVRLEFSRDFGATWHLLLPLCYHSSSHVSSLCSTEHHPSSTYYAGTMQGWRREVVHFGKLHLCGSVRFRWYQGFYPAGSQPVTWAIDNVYIGPQCEEMCNGQGSCINGTKCICDPGYSGPTCKISTKNPDFLKDDFEGQLESDRFLLMSGGKPSRKCGILSSGNNLFFNEDGLRMLMTRDLDLSHARFVQFFMRLGCGKGVPDPRSQPVLLQYSLNGGLSWSLLQEFLFSNSSNVGRYIALEIPLKARSGSTRLRWWQPSENGHFYSPWVIDQILIGGNISGNMVLEDDFTTLDSRKWLLHPGGTKMPVCGSTGDALVFIEKASTRYVVSTDVAVNEDSFLQIDFAVSCSVTDSCYAIELEYSVDLGLSWHPLVRDCLPTNVECSRYHLQRILVSDTFNKWTRITLPLPPYTRSQATRFRWHQPAPFDKQQTWAIDNVYIGDGCIDMCSGHGRCIQGNCVCDEQWGGLYCDDPETSLPTQLKDNFNRAPSSQNWLTVNGGKLSTVCGAVASGMALHFSGGCSRLLVTVDLNLTNAEFIQFYFMYGCLITPNNRNQGVLLEYSVNGGITWNLLMEIFYDQYSKPGFVNILLPPDAKEIATRFRWWQPRHDGLDQNDWAIDNVLISGSASTRKQNYMMNFSRQHGLRRFYNRRRRSLRRYP
Turning to B3, in the experiment on pDAB1 (Tyr232) [2], the pDAB1 levels entry is “increased pDAB1 levels”.
